Data: article PMC5696595, “Therapeutic Application of Phage Capsule Depolymerases against K1, K5, and K30 Capsulated E. coli in Mice” (Frontiers in Microbiology, 2017)

Tests used:
Assay in all cases: SEC; analytical size exclusion on Superose 6 10/300 GL, AKTA FPLC, 4°C, 25 mM sodium phosphate, 150 mM NaCl, pH 7.5, 0.4 ml/min; molecular weights estimated with high molecular weight calibration kit; 200 μg to 1 mg protein loaded
[1] = molecular target: K1F depolymerase (coliphage K1F)
[2] = molecular target: K1H depolymerase (coliphage K1H)
[3] = molecular target: K5 depolymerase (coliphage K1-5)
[4] = molecular target: the molecule itself

Molecule K1F depolymerase (enzyme) has a stoichiometry N [1] of 3.

With K1H depolymerase (enzyme) the stoichiometry N [2] was 3.

K5 depolymerase (enzyme) showed a stoichiometry N [3] of 3.

B1: K30 gp42 (natural protein)
chain: MLDKLNQPKGSTIGVLKDGRTTQEAIDELTNDVTGSITTTRYASSASQALFPKLIDKMTAYRHGVSGFQDKFRIYGYGSSVGNGATIGGNSSPNTPVAKFFEHFQRTVNKAGIYPFEYSNKSVDGSNINDFLNREWPATVATGVFPDLAVFAYGMNDFPSAQYNAGMTFGANGFKQRLRNAIQKVRDAGGDVVLLTTPHPNIEEYSWELPSSIDMVWPQFAAKPVAGDVLIPPVSQSNVSFDFMGKRITQGVRFLRGNDAMREVAVEMGCVLIDVEKYWFEAVGKYGNVLLFDRVPAMQTVHPNLLGHQQSYWRAIEEFFNNVDSSGWIAPDAKLNQTLDVGGNALNPAKMEADVDLQANGIRQRAFVRRDKSGRVMEELTQDSRVKRTSYTVSDPTVSAPGYSLTWDEWFTRTKGLFTSGETLGIPVNNRTEGRLLVTAWISGQTGWTQLEDYLVSNREGVVLVSKIGSLDNTPPAGGTGTNGQRLFTVSTSANNVVVNILSDNATVKFKLDTFGA
In the case of B1, the “stoichiometry N” value [4] is reported as 3.

B2: K30 gp41 (enzyme)
chain: MDQDIKTVIQYPVGATEFDIPFDYLSRKFVRVSLVTGDNRRLLSNITEYRYVSKTRVKLLVETAGFDRVEIRRFTSASERIVDFSDGSVLRAADLNVSQIQSAHIAEEARDAALMAMPQDDVGNLDARNRRIVRLAPGIDSTDAINKNQLDTTLGEAGGILSQVKDTQKDIQNYIQKFGDDTAMVRGVNWVYNGGSAIGGETSFIIDKSAPVFAVPYIEVNGSRQFRDWQYEYDPATKRVTLVKPLEAGDFVVCLTTENKLPLEDLLASTGGADSIGKAGGGTVQDGLDATIHGTDVHRDTVTPGKLDTLLVYNGTNAGRDLRGHEFVMPHGTFSATRILRTRGISAAESKYTGFTWRGQGSSFTKLVHPATGGQGDIAFMDYLKDVTMSGFMMDNTALGQGTSNQDTRNGQFWIRHSVDSYFDDLRFAGADALTFCLDHCKNIYSTNLKVDYQLRYPTGTGKSPLIVGDYSEQCMFIGGYVKTVSPDGTIKYAGDLADNDQADDTKWAFINLYGLTFEQKPNSNACMWQEGEGAPSNAHFIGMNYINNGVGHGVSEKAVGTDIGSTFRQAQVRAVWNRAEYISIGSHFINNDAKYPAGTGGAGTAAAGGVHNDNAKFTSLVGDYFRGNFADYTDYTGASGVNPENSTHITNAKLTSIIRTSSSSTSQHLAIVNCQLTSAGRISGGGNGRLHVSVVASHCVGPLGQFGHGQSETYLDVINSTFTAAGSTEAMITQSGVGNISFANSTFRDYIRVVDGSHTRVTFRNCTFYTCTFTEDDRKARYVNCRFISCTDAPDSFGLNFAADSLDRPSSLRVNVTLTAGGSYTFPAWVLQGRGAYFINVGGNGANLPACAGIIGKSSATGSGVWTPQWESTPSSIVVSWPSNGYITVTATTAGNYTIGVH
In the case of B2, the “stoichiometry N” value [4] is reported as 3.
